Source: patent US20120322150A1, “Mechanism and Method for Regulating Glycogen Synthase Kinase 3 (GSK3)-Related Kinases” (CARNEGIE INSTITUTION OF WASHINGTON, priority 2009, published 2012)
Blank lines part the entries; values can stand above or below the molecule they belong to.

Assays:
[1] = system: phospho-myelin basic protein; experiment: In vitro phosphatase assay using phospho-myelin basic protein; assay type: biochemical
Method: In vitro phosphatase assay using phospho-myelin basic protein was performed according to manufacturer's protocol (New England Biolab. Beverly, Mass.). To examine tyrosine phosphatase activity of BSU 1, 20 mM p-nitrophenyl phosphate was incubated with MBP-BSD) in 50 uL of reaction buffer (50 mM Tris. pH 7.2, 20 mM NaCl, 5 mM DTT, 10 RIM MgCl2). The reaction was quenched by the addition of 100 uL of 0.5 M NaOH after incubation at 30° C. for 1 hr. p-Nitrophenol production was determined by measuring A405 (extinction coefficient, e=1.78×104 M-tCm J).

[2] = biological target: T1, BIN2 (Arabidopsis thaliana, UniProt Q39011); experiment: In vitro BIN2 inhibition assay (BIN2 phosphorylation of BZR1); assay type: biochemical
T1 construct: made in house; host or cells: E. coli
T1 sequence (Q39011 1-380): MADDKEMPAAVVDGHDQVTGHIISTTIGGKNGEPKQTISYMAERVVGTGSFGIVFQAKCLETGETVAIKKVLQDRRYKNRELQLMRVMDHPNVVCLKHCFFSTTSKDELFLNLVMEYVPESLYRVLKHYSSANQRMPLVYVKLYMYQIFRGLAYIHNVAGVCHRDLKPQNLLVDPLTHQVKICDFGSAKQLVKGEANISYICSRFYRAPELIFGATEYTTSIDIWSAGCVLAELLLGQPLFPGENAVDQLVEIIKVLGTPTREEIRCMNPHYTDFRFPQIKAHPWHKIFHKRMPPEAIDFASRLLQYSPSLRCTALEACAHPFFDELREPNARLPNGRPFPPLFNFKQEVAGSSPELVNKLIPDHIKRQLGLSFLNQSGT
Method: In vitro BIN2 inhibition assays were performed by 3 hrs co-incubation of MBP-BZR1, GST BIN2, GST BSU1 and ^32P-γATP or pre-incubation of GST-BIN2 with GST-BSU1 for various time followed by adding MBP-BZR1 and 32P-γATP. The examine activities of partial BSU1, N-terminal Kelch (1-363th amino acid) and C-terminal phosphatase (364-793th amino acid) region were used. GST, GST-BSU1, GSTBSU1-Ketch and GST-BSU1-phosphatase were pre-incubated with GST-BIN2 for 1 hr, and further incubated with MBP-BZR1 and ^32P-γATP for 3 hrs.
To test activities of BSU1-YFP, anti-GFP antibody-Protein A beads were used to immunoprecipitate BSU1-YFP from extracts of BSU1-YFP transgenic plants, and non-transgenic wild type plants were used as control. The beads were incubated with GST-BIN2 or GST bin2-1 for 1 hr, and then the beads were removed. The BSU1-treated GST-BIN2 or GST-bin2-1 was further incubated with MBP-BZR1 and ^32P-γATP for 3 hrs.

[3] = system: phosphorylated BZR1 and BZR2; experiment: In vitro dephosphorylation of pre-phosphorylated BZR1 and BZR2; assay type: biochemical, Arabidopsis; conditions: added after BIN2 and ATP were removed
Method: MBP-BZR1 and GST-BIN2 proteins were expressed and purified from E. coli and maltose or glutathione was removed from the proteins by ultrafiltration using Centricon 30 (Amicon Ultra, Millipore, Billerica, Mass.). To prepare fully phosphorylated BZR1 proteins, MBP-BZR1 protein was incubated with GST BIN2 as 1 to 1 ratio in the kinase buffer containing 100 μM ATP at 30° C. overnight. The protein mixture was incubated with glutathione Sepharose beads to remove GSTBIN2, then with amylose beads to purify MBP-pBZR1. Partially phosphorylated 32Plabeled pBZR1 and pBZR2 were prepared by the same method but MBP-BZR1 or MBP-BZR2 was incubated with GST BIN2 at a 15 to 1 ratio for 3 hrs in the presence of […] 32P-γATP. For dephosphorylation, GST-BSU1 was incubated with fully phosphorylated MBP-pBZR1 and 32P-MBP-pBZR1 or 32 P-MBP-pBZR2 for 12 or 16 Ins, […]

[4] = biological target: T2, PP1 (Homo sapiens, UniProt P36873); experiment: Inhibition of PP1 activity on BIN2; assay type: biochemical, mammalian
T2 construct: made in house; host or cells: E. coli
T2 sequence (P36873 whole entry): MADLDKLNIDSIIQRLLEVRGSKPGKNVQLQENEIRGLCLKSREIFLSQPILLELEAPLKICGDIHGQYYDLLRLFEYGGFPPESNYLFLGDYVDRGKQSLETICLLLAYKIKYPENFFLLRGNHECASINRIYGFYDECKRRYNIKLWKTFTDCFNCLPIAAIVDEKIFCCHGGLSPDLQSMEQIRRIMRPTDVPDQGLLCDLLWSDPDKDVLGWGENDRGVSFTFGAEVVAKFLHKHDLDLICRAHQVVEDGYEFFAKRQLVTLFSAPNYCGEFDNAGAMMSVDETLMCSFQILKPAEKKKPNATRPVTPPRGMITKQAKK
Method: It was next examined whether the mammalian homolog to BSU1, PP1, would dephosphorylate BIN2. A GST-tagged BIN2 was isolated from cells and incubated with PP1 purified from E. coli cells expressing the phosphatase.

B1: BSU1-D5ION: mutant BSU1, Asp510 to Asn, with reduced phosphatase activity (protein, UniProt Q9LR78 1-793, looked up, variant D510N)
Serine/threonine-protein …: MAPDQSYQYPSPSYESIQTFYDTDEDWPGPRCGHTLTAVFVNNSHQLILFGGSTTAVANHNSSLPEISLDGVTNSVHSFDVLTRKWTRLNPIGDVPSPRACHAAALYGTLILIQGGIGPSGPSDGDVYMLDMTNNKWIKFLVGGETPSPRYGHVMDIAAQRWLVIFSGNNGNEILDDTWALDTRGPFSWDRLNPSGNQPSGRMYASGSSREDGIFLLCGGIDHSGVTLGDTYGLKMDSDNVWTPVPAVAPSPRYQHTAVFGGSKLHVIGGILNRARLIDGEAVVAVLDTETGEWVDTNQPETSASGANRQNQYQLMRRCHHAAASFGSHLYVHGGIREDVLLDDLLVAETSQSSSPEPEEDNPDNYMLLDDYLMDEPKPLSSEPEASSFIMRSTSEIAMDRLAEAHNLPTIENAFYDSAIEGYVPLQHGAETVGNRGGLVRTASLDQSTQDLHKKVISTLLRPKTWTPPANRDFFLSYLEVKHLCDEVEKIFMNEPTLLQLKVPIKVFGNIHGQYGDLMRLFHEYGHPSVEGDITHIDYLFLGDYVDRGQHSLEIIMLLFALKIEYPKNIHLIRGNHESLAMNRIYGFLTECEERMGESYGFEAWLKINQVFDYLPLAALLEKKVLCVHGGIGRAVTIEEIENIERPAFPDTGSMVLKDILWSDPTMNDTVLGIVDNARGEGVVSFGPDIVKAFLERNGLEMILRAHECVIDGFERFADGRLITVFSATNYCGTAQNAGAILVIGRDMVIYPKLIHPHPPPISSSEEDYTDKAWMQELNIEMPPTPARGESSE
phosphatase activity of the wild type protein ([1]; phospho-myelin basic proteins as a substrate): about 15%

BIN2 phosphorylation of BZR1, pre-incubation ([2]; pre-incubated with BIN2 before adding BZR1): showed no effect
B2: Kelch repeat domain: N-terminal Kelch (1-363th amino acid) region of BSU1 (protein)
chain: MAPDQSYQYPSPSYESIQTFYDTDEDWPGPRCGHTLTAVFVNNSHQLILFGGSTTAVANHNSSLPEISLDGVTNSVHSFDVLTRKWTRLNPIGDVPSPRACHAAALYGTLILIQGGIGPSGPSDGDVYMLDMTNNKWIKFLVGGETPSPRYGHVMDIAAQRWLVIFSGNNGNEILDDTWALDTRGPFSWDRLNPSGNQPSGRMYASGSSREDGIFLLCGGIDHSGVTLGDTYGLKMDSDNVWTPVPAVAPSPRYQHTAVFGGSKLHVIGGILNRARLIDGEAVVAVLDTETGEWVDTNQPETSASGANRQNQYQLMRRCHHAAASFGSHLYVHGGIREDVLLDDLLVAETSQSSSPEPEEDNP
modifications: left off: a dimerising Fc or GST
notes: N-terminal Kelch (1-363th amino acid) region of BSU1

B3: BSL1: closest homolog of BSU1 (SEQ ID NO: 28) (protein, listed as Arabidopsis thaliana)
chain: MGSKPWLHPAPQYKTLETFWDDEDDAPGPRCAHTLTAVAATKTHGPRLILFGGATAIEGGSSSVPGIRLAGVTNTVHSYDILTRKWTRLKPAGEPPSPRAAHAAAAVGTMVVFQGGIGPAGHSTDDLYVLDMTNDKFKWHRVVVQGDGPGPRYGHVMDLVSQRYLVTVTGNDGKRALSDAWALDTAQKPYVWQRLNPDGDRPSARMYASGSARSDGMFLLCGGRDTLGAPLGDAYGLLMHRNGQWEWTLAPGVAPSPRYQHAAVFVGARLHVSGGVLRGGRVIDAEASVAVLDTAAGVWLDRNGQVTSARGSKGQIDQDPSFELMRRCRHGAASVGIRIYVHGGLRGDVLLDDFLVAENSTFQSDISSPLLASDRTQQSSTPRFSYAARPPSGSEPSFSMSEGLSLDENSLEKLTEASAAEAEVASSVWRAAQLGAGTLDEEPSTSDASSPIVESTTDGTANEGDVRLHPRAVVVAKETVGSLGGMVRQLSLDQFQNESRRMVPMNNSDVPQPTKKFTRQKSPQGLHKKVIAALLRPRNWKPPGNRKFFLDSYEVGELCYAAEQIFMHEQTVLQLKAPIKVFGDLHGQFGDLMRLFDEYGFPSTAGDITYIDYLFLGDYVDRGQHSLETITLLLALKIEYPENVHLIRGNHEAADINALFGFRLECIERMGENDGIWAWTRFNQLFNYLPLAALIENKIICMHGGIGRSISTVEQIEKIERPITMDAGSLVLMDLLWSDPTENDSIEGLRPNARGPGLVTFGPDRVTEFCKRNKLQLIIRAHECVMDGFERFAQGQLITLFSATNYCGTANNAGAILVVGRGLVIVPKLIHPLPPPILSPENSPEHSGDDAWMQELNIQRPPTPTRGRPQPDFDRSSLAYI
BIN2 phosphorylation of BZR1, co-incubation ([2]; co-incubated with BIN2 and BZR1, 32P-γATP, 3 hrs): inhibit B1N2 phosphorylation of BZR1 and BZR2
phosphatase activity on phosphorylated myelin basic protein ([1]; protein purified from E.coli, metal ions 1 mM): showed manganese-dependent phosphatase activities
dephosphorylation of pre-phosphorylated BZR1 / BZR2 [3]: do not dephosphorylate phosphorylated BZR1 and BZR2

B4: PP2: PP1 inhibitor, protein phosphatase inhibitor 2 (protein, UniProt P41236 2-205, looked up)
Protein phosphatase inhibitor …: AASTASHRPIKGILKNKTSTTSSMVASAEQPRGNVDEELSKKSQKWDEMNILATYHPADKDYGLMKIDEPSTPYHSMMGDDEDACSDTEATEAMAPDILARKLAAAEGLEPKYRIQEQESSGEEDSDLSPEEREKKRQFEMKRKLHYNEGLNIKLARQLISKDLHDDDEDEEMLETADGESMNTEESNQGSTPSDQQQNKLRSS
enzymatic activity of PP1 on BIN2 [4]: inhibited the enzymatic activity of the PP1 phosphatase on BIN2
